Like-named read-outs stand apart in the source and are kept apart here.
Assays:
[1] = In vitro stability in physiological saline/PBS or FBS, radio-HPLC; format: in vitro ADME; conditions: 1.85 MBq in 5 µL, 37 °C, 2 h
Procedure: A measure of 5 µL of [^68Ga]Ga-TATE-46 (1.85 MBq) was added to 300 µL of PBS or FBS and incubated at 37 °C for 2 h. Subsequently, the radiochemical purity was determined using HPLC.

[2] = Micro PET imaging with ROI quantification, MC38 tumor-bearing mice; format: in vivo; conditions: female, BALB/c nude, mouse, iv, total radioactivity, 1 h p.i., 5.55–7.4 MBq tail vein, MC38 tumors (SSTR2/FAP, negative), read-out: uptake in MC38 tumors (ROI quantitative analysis of PET images)
Procedure: (§1) Female BALB/c nude mice were obtained from Charles River Laboratories (Beijing, China). […] Approximately 5 × 10^6 cells were implanted into the right shoulder of each mouse to establish an NCI-H727 tumor model and Mc38 tumor model. Once the tumor volume reached 200–300 mm^3, the mice were used for imaging or biodistribution studies. All animal experiments were carried out in accordance with the National Institutes of Health Guidelines for the Care and Use of Laboratory Animals and were approved by the Animal Protection and Utilization Committee of the General Hospital of the PLA (Approval No.: S2023-209-1).
Each set of NCI-H727 tumor xenograft models (n = 3) was administered with [^68Ga]Ga-TATE-46, [^68Ga]Ga-DOTA-TATE, or [^68Ga]Ga-FAPI-46 (5.55–7.4 MBq, 150 µL/mouse) through the tail vein. Static PET scans were performed at 30 min, 1 h, 2 h, and 4 h after injection for 10 min each. In blocking studies, unlabeled precursors (FAPI-46, DOTA-TATE, FAPI-46 + DOTA-TATE, 10 mg/kg) were co-injected with [^68Ga]Ga-TATE-46. After image acquisition, the images were reconstructed using the three-dimensional ordered subset expectation maximization (3D-OSEM) algorithm and analyzed on the Recon/Avator-s-10 workstation. The percentage of injected dose per gram of tissue (%ID/g) was determined by delineating regions of interest.

[3] = Ex vivo biodistribution in NCI-H727 tumor-bearing mice; conditions: female, BALB/c nude, mouse, in vivo, 1.48 MBq, total radioactivity, γ-counter, mean ± SD, n=3; for tissue uptake at 0.5 h: 0.5 h p.i.; for tissue uptake at 1 h: 1 h p.i.; for tissue uptake at 2 h: 2 h p.i.; for tissue uptake at 4 h: 4 h p.i.
Procedure: as §1
(§2) The NCI-H727 tumor-bearing mice were randomly assigned to four groups (with three mice in each group) and were injected with [^68Ga]Ga-TATE-46 (1.48 MBq, 100 µL). The mice were put to death at 0.5, 1, 2, and 4 h post-injection (p.i.). The tissues and organs of concern were gathered, weighed, and measured for radioactivity using a γ-counter. Additionally, [^68Ga]Ga-DOTA-TATE and [^68Ga]Ga-FAPI-46 were used as control groups in the biodistribution study of the NCI-H727 tumor model at 1 h p.i. After performing time decay correction, the radiotracer uptake in each tissue and organ was calculated as %ID/g.

[4] = test system: NCI-H727 tumor-bearing mice; test: as above; conditions: biodistribution in NCI-H727 tumor-bearing mice
Procedure: as §1, §2

[5] = Partition coefficient (log P), n-octanol/PBS; format: physicochemical; conditions: shake-flask n-octanol/PBS (0.1 mol/L, pH 7.4), 14.8 MBq in 100 µL, vortexed 2 min at room temperature, centrifuged 3000 rpm 5 min, γ-counter CPM; mean ± SD, repeated three times; read-out: Log p
Procedure: In a 15 mL centrifuge tube, 2.9 mL of PBS (0.1 mol/L, pH = 7.4) and 3 mL of n-octanol were added. [^68Ga]Ga-TATE-46, [^68Ga]Ga-DOTA-TATE, or [^68Ga]Ga-FAPI-46 (14.8 MBq, 100 µL) were added to each tube. The mixture was vortexed at room temperature for 2 min to ensure thorough blending, and then centrifuged at room temperature (effective centrifuge radius 12 cm, 3000 rpm) for 5 min. After allowing sufficient time for phase separation, three 500 µL samples were taken from each layer. The radioactivity of each sample was measured using a γ-counter (count per minute, CPM), and log p = log (n-octanol CPM/water CPM) was calculated. The experiment was repeated three times.

[6] = NCI-H727 tumor, read-out: Biodistribution, Tumor (tumor uptake)
[7] = NCI-H727 tumor-bearing mice, read-out: Biodistribution, Blood
[8] = NCI-H727 tumor-bearing mice, read-out: Biodistribution, Bone
[9] = NCI-H727 tumor-bearing mice, read-out: Biodistribution, Brain
[10] = NCI-H727 tumor-bearing mice, read-out: Biodistribution, Heart
[11] = NCI-H727 tumor-bearing mice, read-out: Biodistribution, Intestine
[12] = NCI-H727 tumor-bearing mice, read-out: Biodistribution, Kidney
[13] = NCI-H727 tumor-bearing mice, read-out: Biodistribution, Liver
[14] = NCI-H727 tumor-bearing mice, read-out: Biodistribution, Lung
[15] = NCI-H727 tumor-bearing mice, read-out: Biodistribution, Muscle
[16] = NCI-H727 tumor-bearing mice, read-out: Biodistribution, Spleen
[17] = NCI-H727 tumor-bearing mice, read-out: Biodistribution, Stomach

C[C@@H](O)[C@H](NC(=O)[C@@H]1CSSC[C@H](NC(=O)[C@@H](Cc2ccccc2)NC(=O)CCCCCNC(=O)CCCCCNC(=O)[C@H](Cc2ccccc2)NC(=O)C(CCC(=O)N[C@@H](Cc2ccccc2)C(=O)NCCCCCC(=O)NCCCCCC(=O)N2CCN(CCCN(C)c3ccc4nccc(C(=O)NCC(=O)N5CC(F)(F)C[C@H]5C#N)c4c3)CC2)NC(=O)CN2CCN(CC(=O)O)CCN(CC(=O)O)CCN(CC(=O)O)CC2)C(=O)N[C@@H](Cc2ccc(O)cc2)C(=O)N[C@H](Cc2c[nH]c3ccccc23)C(=O)N[C@@H](CCCCN)C(=O)N[C@@H]([C@@H](C)O)C(=O)N1)C(=O)O (some centres unmarked) [[^68Ga]Ga-TATE-46, metal not drawn]
In vitro stability in FBS (HPLC chromatogram) ([1]; 300 µL FBS): only one peak | In vitro stability in physiological saline (HPLC chromatogram) ([1]; physiological saline (method: 300 µL PBS)): only one peak | tissue uptake at 1 h [2]: 2.05 ± 0.09 %ID/g | tissue uptake at 0.5 h [3, 6]: 3.56 ± 0.69 %ID/g | tissue uptake at 0.5 h [3, 7]: 13.5 ± 2.03 %ID/g | tissue uptake at 0.5 h [3, 8]: 4.84 ± 0.25 %ID/g | tissue uptake at 0.5 h [3, 9]: 0.37 ± 0.06 %ID/g | tissue uptake at 0.5 h [3, 10]: 4.71 ± 0.3 %ID/g | tissue uptake at 0.5 h [3, 11]: 4.58 ± 2.16 %ID/g | tissue uptake at 0.5 h [3, 12]: 23.9 ± 8.92 %ID/g | tissue uptake at 0.5 h [3, 13]: 10 ± 2.51 %ID/g | tissue uptake at 0.5 h [3, 14]: 7.03 ± 1.58 %ID/g | tissue uptake at 0.5 h [3, 15]: 2.4 ± 0.48 %ID/g | tissue uptake at 0.5 h [3, 16]: 4.48 ± 0.72 %ID/g | tissue uptake at 0.5 h [3, 17]: 6.84 ± 0.73 %ID/g | tissue uptake at 1 h [3, 6]: 7.53 ± 1.13 %ID/g | tissue uptake at 1 h [3, 7]: 11.3 ± 2.53 %ID/g | tissue uptake at 1 h [3, 8]: 4.8 ± 1.08 %ID/g | tissue uptake at 1 h [3, 9]: 0.36 ± 0.03 %ID/g | tissue uptake at 1 h [3, 10]: 4.15 ± 0.83 %ID/g | tissue uptake at 1 h [3, 11]: 3.74 ± 0.72 %ID/g | tissue uptake at 1 h [3, 12]: 37 ± 3.89 %ID/g | tissue uptake at 1 h [3, 13]: 10.5 ± 2.84 %ID/g | tissue uptake at 1 h [3, 14]: 5.51 ± 0.97 %ID/g | tissue uptake at 1 h [3, 15]: 2.39 ± 0.49 %ID/g | tissue uptake at 1 h [3, 16]: 4.01 ± 0.79 %ID/g | tissue uptake at 1 h [3, 17]: 6.68 ± 0.95 %ID/g | tissue uptake at 2 h [3, 6]: 7.08 ± 0.88 %ID/g | tissue uptake at 2 h [3, 7]: 6.13 ± 0.61 %ID/g | tissue uptake at 2 h [3, 8]: 4.65 ± 0.87 %ID/g | tissue uptake at 2 h [3, 9]: 0.23 ± 0.04 %ID/g | tissue uptake at 2 h [3, 10]: 2.41 ± 0.35 %ID/g | tissue uptake at 2 h [3, 11]: 2.85 ± 1.12 %ID/g | tissue uptake at 2 h [3, 12]: 26.5 ± 4.77 %ID/g | tissue uptake at 2 h [3, 13]: 8.4 ± 0.12 %ID/g | tissue uptake at 2 h [3, 14]: 3.67 ± 0.68 %ID/g | tissue uptake at 2 h [3, 15]: 2.36 ± 0.14 %ID/g | tissue uptake at 2 h [3, 16]: 3.05 ± 0.38 %ID/g | tissue uptake at 2 h [3, 17]: 6.18 ± 0.43 %ID/g | tissue uptake at 4 h [3, 6]: 6.48 ± 1.82 %ID/g | tissue uptake at 4 h [3, 7]: 4.09 ± 0.21 %ID/g | tissue uptake at 4 h [3, 8]: 4.49 ± 0.06 %ID/g | tissue uptake at 4 h [3, 9]: 0.24 ± 0.02 %ID/g | tissue uptake at 4 h [3, 10]: 1.9 ± 0.09 %ID/g | tissue uptake at 4 h [3, 11]: 1.82 ± 1.11 %ID/g | tissue uptake at 4 h [3, 12]: 22.4 ± 6.23 %ID/g | tissue uptake at 4 h [3, 13]: 8.08 ± 0.87 %ID/g | tissue uptake at 4 h [3, 14]: 2.69 ± 0.17 %ID/g | tissue uptake at 4 h [3, 15]: 2.36 ± 0.32 %ID/g | tissue uptake at 4 h [3, 16]: 3.04 ± 0.09 %ID/g | tissue uptake at 4 h [3, 17]: 5.05 ± 0.01 %ID/g | tumor/muscle ratio [4]: 3–4 | logD [5]: -0.2 ± 0.05

Reference: PMC11677724, “Preclinical Study of a Dual-Target Molecular Probe Labeled with ^68Ga Targeting SSTR2 and FAP” (Pharmaceuticals, 2024)
